Results on three molecules are retold here after patent publication US20210300993A1 (AVALON GLOBOCARE, published 2021).

What is called Kd is the equilibrium constant for the complex coming apart. Low values mean higher affinity, high ones lower affinity. By EC50 (read off the curve) is commonly meant the concentration giving half of the maximal effect. High values mean a less potent agent, low ones a more potent agent.

The target of test [1] is T1, IFNγ (UniProt P01579 24-166, limits assumed).
T1 sequence (looked up): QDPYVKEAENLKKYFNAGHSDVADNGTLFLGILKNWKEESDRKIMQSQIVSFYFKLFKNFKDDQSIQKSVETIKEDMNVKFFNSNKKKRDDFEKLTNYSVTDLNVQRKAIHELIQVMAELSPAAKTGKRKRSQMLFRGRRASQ
Briefly: MicroScale Thermophoresis, 5 nM NT647-labeled receptor fusion against a gradient of ligand, 25 C. The method, then:
(§1) The affinity of QTY modified cytokine receptor fused with Fc of IgG for their respective native ligands was measured using MicroScale Thermophoresis (MST). Changes in thermophoretic movement for labeled proteins upon ligand-binding were recorded and plotted as a function of ligand concentration.
(§2) MicroScale Thermophoresis (MST) is an optical method detecting changes in thermophoretic movement and TRIC of the protein-attached fluorophore upon ligand binding. Active labelled proteins contribute to the thermophoresis signal upon ligand binding. […] Herein ligand binding experiments were carried out with 5 nM NT647-labeled protein in 1× PBS, 10 mM DTT buffer with different concentration of arginine, against a gradient of respective ligands on a Monolith NT.115 pico instrument at 25° C. Synthesized receptors were labeled with Monolith NT™ 2nd generation protein labeling kit RED-NHS (NanoTemper Technologies) so as to obtain unique fluorescent signals. MST time traces were recorded and analyzed to obtain the highest possible signal-to-noise levels and amplitudes, >5 Fnorm units. The recorded fluorescence was plotted against the concentration of ligand, and curve fitting was performed using the Kd fit formula derived from the law of mass action. For clarity, binding graphs of each independent experiment were normalized to the fraction bound (0=unbound, 1=bound). MST experiments were performed in the Center for Macromolecular Interactions at Harvard Medical School.
A general note: In MST a laser heats a spot of the sample, and binding alters the fluorescence response.

For test [2], the target named is T1, IFNγ. Briefly: MicroScale Thermophoresis (MST), fluorescently labelled receptor fusion titrated with IFNγ.
Description: (§3) FIG. 3A-3D. MST ligand binding measurements. The receptors were labeled with fluorescent dye. The ligands were purchased commercially from and dissolved in di water. (FIG. 3A) IL4Rα^QTY-Fc with IL4; (FIG. 3B) IL10Rα^QTY-Fc with IL10; (FIG. 3C) IFNγR1^QTY-Fc with IFNγ; (FIG. 3D) […].
as §2, with “MST experiments were performed in the Center for Macromolecular Interactions at Harvard Medical School.” left out

Test [3] concerns the target T2, IL29 (UniProt Q8IU54 20-200, limits assumed). Briefly: MicroScale Thermophoresis, 5 nM NT647-labeled receptor fusion against a gradient of ligand, 25 C. How it is done:
as §1, §2

Test [4] has as its target T2, IL29. Briefly: MicroScale Thermophoresis (MST), fluorescently labelled receptor fusion titrated with IL29.
Description: as §3
as §2, with “MST experiments were performed in the Center for Macromolecular Interactions at Harvard Medical School.” left out

For test [5], the target named is T3, IL10 (UniProt P22301 19-178). Kind of test: MicroScale Thermophoresis, 5 nM NT647-labeled receptor fusion against a gradient of ligand, 25 C. The method, then: as §1, §2
The target of test [6] is T3, IL10. Kind of test: MicroScale Thermophoresis (MST), fluorescently labelled receptor fusion titrated with IL10.
Description: as §3
as §2, with “MST experiments were performed in the Center for Macromolecular Interactions at Harvard Medical School.” left out

T3 sequence (P22301 19-178 limits assumed): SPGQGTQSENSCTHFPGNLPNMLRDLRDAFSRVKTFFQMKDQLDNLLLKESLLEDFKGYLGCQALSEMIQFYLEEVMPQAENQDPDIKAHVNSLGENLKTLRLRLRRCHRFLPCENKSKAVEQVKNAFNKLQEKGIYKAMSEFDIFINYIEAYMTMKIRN
T2 sequence (Q8IU54 20-200 limits assumed): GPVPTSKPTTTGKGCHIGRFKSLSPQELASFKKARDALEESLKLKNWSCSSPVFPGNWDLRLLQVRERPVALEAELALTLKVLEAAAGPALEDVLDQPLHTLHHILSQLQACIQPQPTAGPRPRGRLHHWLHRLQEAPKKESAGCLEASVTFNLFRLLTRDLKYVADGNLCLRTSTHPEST

B1: IFNγR1^QTY-Fc (HUMAN Interferon gamma receptor 1-Fc fusion) (Fc fusion)
chain: EMGTADLGPSSVPTPTNVTIESYNMNPIVYWEYQIMPQVPVFTVEVKNYGVKNSEWIDACINISHHYCNISDHVGDPSNSLWVRVKARVGQKESAYAKSEEFAVCRDGKIGPPKLDIRKEEKQIMIDIFHPSVFVNGDEQEVDYDPETTCYIRVYNVYVRMNGSEIQYKILTQKEDDCDEIQCQLAIPVSSLNSQYCVSAEGVLHVWGVTTEKSKEVCITIFNSSIKGSQWTPTTAAQQQYQTQSQTYTCFYIKKTETSQVAPAHHHHHHHHHHGSKLVDPRGPTIKPCPPCKCPAPNLLGGPSVFIFPPKIKDVLMISLSPIVTCVVVDVSEDDPDVQISWFVNNVEVHTAQTQTHREDYNSTLRVVSALPIQHQDWMSGKEFKCKVNNKDLPAPIERTISKPKGSVRAPQVYVLPPPEEEMTKKQVTLTCMVTDFMPEDIYVEWTNNGKTELNYKNTEPVLDSDGSYFMYSKLRVEKKNWVERNSYSCSVVHEGLHNHHTTKSFSRTPGK
modifications: labeled with NT647 RED-NHS fluorescent dye for MST
The molecule B1 registered a Kd with IFNγ [1] of 6.2 nM. Also, the “EC50 (read off the curve)” value with IFNγ [2] is around 9 nM.

B2: IFNλR1^QTY-Fc (HUMAN Interferon lambda receptor 1-Fc fusion) (Fc fusion)
chain: RPRLAPPQNVTLLSQNFSVYLTWLPGLGNPQDVTYFVAYQSSPTRRRWREVEECAGTKELLCSMMCLKKQDLYNKFKGRVRTVSPSSKSPWVESEYLDYLFEVEPAPPVLVLTQTEEILSANATYQLPPCMPPLDLKYEVAFWKEGAGNKTLFPVTPHGQPVQITLQPAASEHHCLSARTIYTFSVPKYSKFSKPTCFLLEVPEANWAYQTQPSQQTQQQTTAAGGTTWKTLMGNTETSQVAPAHHHHHHHHHHGSKLVDPRGPTIKPCPPCKCPAPNLLGGPSVFIFPPKIKDVLMISLSPIVTCVVVDVSEDDPDVQISWFVNNVEVHTAQTQTHREDYNSTLRVVSALPIQHQDWMSGKEFKCKVNNKDLPAPIERTISKPKGSVRAPQVYVLPPPEEEMTKKQVTLTCMVTDFMPEDIYVEWTNNGKTELNYKNTEPVLDSDGSYFMYSKLRVEKKNWVERNSYSCSVVHEGLHNHHTTKSFSRTPGK
modifications: labeled with NT647 RED-NHS fluorescent dye for MST
For the molecule B2, the affinity with IL29 [3], expressed as Kd, was 11.5 nM. Also, the 50% effective concentration (EC50 (read off the curve)) in the test with IL29 [4] was around 10 nM.

B3: IL10Rα^QTY-Fc (HUMAN Interleukin-10 receptor subunit alpha-Fc fusion) (Fc fusion)
chain: HGTELPSPPSVWFEAEFFHHILHWTPIPNQSESTCYEVALLRYGIESWNSISNCSQTLSYDLTAVTLDLYHSNGYRARVRAVDGSRHSNWTVTNTRFSVDEVTLTVGSVNLEIHNGFILGKIQLPRPKMAPANDTYESIFSHFREYEIAIRKVPGNFTFTHKKVKHENFSLLTSGEVGEFCVQVKPSVASRSNKGMWSKEECISLTRQYFTVTNTTTYYAYTQQQSGAQAYCQAQQLYVRRRKKTETSQVAPAHHHHHHHHHHGSKLVDPRGPTIKPCPPCKCPAPNLLGGPSVFIFPPKIKDVLMISLSPIVTCVVVDVSEDDPDVQISWFVNNVEVHTAQTQTHREDYNSTLRVVSALPIQHQDWMSGKEFKCKVNNKDLPAPIERTISKPKGSVRAPQVYVLPPPEEEMTKKQVTLTCMVTDFMPEDIYVEWTNNGKTELNYKNTEPVLDSDGSYFMYSKLRVEKKNWVERNSYSCSVVHEGLHNHHTTKSFSRTPGK
modifications: labeled with NT647 RED-NHS fluorescent dye for MST
Consider B3, for which, in the test with IL10 [5], the Kd turned out to be 1.6 nM. In addition, in the test with IL10 [6], the “EC50 (read off the curve)” value was around 4 nM.
